The data set is described as follows: protease stability score; higher = more stable; yeast display proteolysis, trypsin and chymotrypsin.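 Also: relative to predicted unfolded state with 0 unfolded-like and 1 meaning tenfold more protease.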
Regarding “SEEHERIKRASEEIWRMSETGDFETFFNNFDPNARSDVDGVFNHGREELHRVLLEFWHKLGLTRIDAKVHDDHSFENHLKVDLEERFDGRTVEVRIISRKYDGRWFYTDLIIIRR”, the protease stability score turned out to be 0.169.

Sequence “HEDEEHALKLTMDFLRWIYTGDEDTLNKYADPNVRLDIGDKVFHGMEFINKHMKELRFHRIHVKRFEAHVVDGKLRSHMDVRIDGNVDGRRRETDVELIFFWEKIDGRWVNTSIIIHHH” displayed a protease stability score of 1.27.

Consider “SEDEEMLRKILELLVESLLTGDWKTVARLADPHVRLEIGDKIFHGRERFIDHLKLLGIDHIEIRLRDMKIIGDKLDTEVEVVERVGDKEIHRDTTLHIRKVNGRWLIKKVILE”, for which the protease stability score stood at 2.01.

As to “DDMEKETRQFTKLWIEALETGDEDFIKHLVDPHAKITVNGVEYHGMESMKDELKKIKNVRMEIKDVRVFNGVSKIDMESHFDGRTHDTRIEIFVVDGRFKEVRLHIR”, the protease stability score was 1.01.

Regarding “DEDEYMAKEMSELLIHLLLTGDEEHFRKFADPNVRLIIGEFESHGREEALRLLRILHRDYGIKHIHFRLRHIHQIGDKVNIHSQVELRQGDKHNSHEMTVIIWKVNGRWVIHSIDIV”, the protease stability score came to 2.38.

On to “DEDERLAKHFIELFIESFLTGDFDEVRKLIDPHTRVEIIIGDKVIEDHGWEAYSRTFNHLGIDHIHREDFRVTLVNGRAVLRLQFRIEIGDKEFDMHIHVFSNKINGRWHVERILIYVR”, for which the protease stability score worked out at 2.34.

The sequence “DEEEETEKKWADIFTKAWITGDEETLERLMDPNVKYHQEVGDKHWSAHGREEVSRHIHELLKHLGVKVVELRRIHVINGVVHVDGKTIVNGREFTVHIHYRIVDGRVREIRFEFR” gave a protease stability score of 2.22.

As for “DEITTLFRKILELMEHALKTGDWEIHKRLMDPHTKSNVNGVVAIGREELDKLWKELDKQVDHVEDSHFTEFRIQGDYIRIHVQIRIRVGDKFHDLKVDYHLVIINGVMKSSSVTFH”, the protease stability score amounted to 0.963.

For the sequence “DDHERDAERAIKELMHNFETGNEDFLNEMADPNMRVIINGKEHIGWENFRHHLRRVLHELRIKRIHIRQVRVQGEWVNVISEFIGEVDGREHRVETSYILLKVNGRWTLHSMYFE”, the protease stability score is 2.69.

Consider “DRLEELVERIAEIFLESYLTGDWKHLFDYFDPHAKLNIDGQESVGRESIQLMLEIHFKRVDHIQHFHRDDHRIQGNKFVFIGTLEGHVNGRTTRSRVKVEVTAVDGRIEELHIHIE”, for which the protease stability score was 1.23.

With “DEDDELAERFFRFWLEFVLTGDEDSSSHLLDPDVRTKYNGVDFHGMESHSKLLLELRIKDFRFTRIRIINGRLEIHGRMHQEIDGKKVDTTVTIDSIKINGKWRVKTINIG”, the protease stability score was 1.73.

“SEDEKWIRHAIRLLSEALETGDESMEHHLMDPNVKIRIDGVQYIGWEHWKKFVDRFDHEKIEHVHIRHIEVFNGRVDLDGFVHIILFVDGQEIRETRRTRIIVLKYNGKWLIESIEIE” came in with a protease stability score of 2.3.

The sequence “TEDERDMQEFYERLIHAIHTGDWREIRRQFDPNVLLNFNGKEIHGREQALRLMRELLHRADVIDDTKTKDLKFYNGRVELHIHEQGQINGQHFRSDVMLIVEKVNGRWYMKSYQID” gave a protease stability score of 1.37.

“SEDEEEAKRSIELEMRSWRTGDEDAWLRLADPDVKFVIDGREFHGREALEFLQNRFDHIEMREHEVRHVDLQGDKIHMDTRLRMILIYNGVEIEKETRTEIVVKKIDGRWILHQVEYR” had a protease stability score of 0.724.

Sequence “DEEEKLWHEVARLEFELIHTGNEETWNKLADPHTRTDINGKKLHGREDFAKWSLEFLRKVKGMTMELRSTHIQGNKIRLIIRLIVDGREVKLDLEIVIINGKLREVKMEVEDT” registered a protease stability score of 2.56.

“TEEERDVEKFIRDTLHYLHTGDEDAVAELMDPNVKFIIGDKHLHGMEALEYWSERFDHFHVRRLEIHHFEIINGRVHIELRIWVEVRYNGRIFELEFRSEYIMYKIDGKWVIKHVRHT” came in with a protease stability score of 1.56.

In turn, “DENEEQLEDSVRMYIEAVQTGDEDSLRKLMDPHWRLEYGDKELHGRWALEVRHKFFKGMRIHHIEVHSVEIQGDKAKIIIHVLMEFDGRRLHIKTEVTVQKINGRWFNHSEKIN” returned a protease stability score of 1.14.

Regarding “DEERVKQVQKKAFEAVMKGNDDEMRKIGKPNVRYEYIDEKNEGQEAVDVVIQLVKKVGAEAKVRRTEVKGDTVRAIFVYNDGDQTVQTKVEVKYEGDKVKEARVELTDEVQKVLHKG”, the protease stability score was -0.027.

“SEDEKIARDVIKLVLHAMRTGDEELFLKLADPNVRILFDGKELHGREEVIRFRERIDHFDIKRFDLRDMKIINGVMHVDVEIDGVLEVDGVRERRIEKVRWVVLKVDGRWRTHSIEIV” showed a protease stability score of 2.69.

As to “DEIHQFIEHMTKLLITALYTGDERMLEELADPHVKLDIGDKHSVGRENFVEMMKWLADHIRVRHTDIHDLKIYGEKTRVDMRVDGEVDGQRVEYRVEIFLFVVDGRLKRSSVHFK”, the protease stability score was 1.09.

Sequence “THDEEVIEIMMDHLREQIHTGDFTSLLEQLDPHARSDVDGREFHGREIVAHVWFHLRVKHVRIDHVDIVNGKIRVDSWIQGRINGRETEYEVILRAHKVDGRWRVHSYEIR” registered a protease stability score of 1.72.

“DEIEEEAKEMTKRILEDIKTGDEDSIFKLMDPNVKLVVGEKIHIGRETASKFFRKHWEDLGITRVESHLRTTHLIDGRVHVHSETNWNGVRIEVIIEIEKVNGRWVIREIHIHMH” came in with a protease stability score of 1.29.

In the case of “DELEEISDTALKMFEHVVKTGDWRELEKLLDPNVKIYYNGREYHGREEAVRIWKEILDRFGADHFELRLRHKHVQGDKVSYHIELRLHYDGKTHHTFMRIIFLKVDGKWLEHELHIH”, the protease stability score was determined as 2.38.

“DEREELIQRFLEMLIHLYLTGDEDWFLRMADPNARLHWNGKDRHGREIILEELIRLLRRFDHVRIDVKKFEVQGDKVIADGLEIYTQGDKRIEVDTKIVLTTVNGKLKTLVWHID” came in with a protease stability score of 0.642.

As for “SEDERDAHRAWEIWLKTLETGNEEDMLKLMDPNVRIIIGDKHHHGREELEKILRRYDHIDMEHVHLRHLEVQGEKVIYIGEIHMVFHFNGVTRRLHTEAILILTKVNGRWSQKSLEIK”, the protease stability score was 1.32.

“DEDKKHALEMAEMLFELIWTGDEHMLKELMDPNTRLFFNGRETHGWEFLSRELIHLRHRSDFRIRDVRIIGDYLHVDGEFHTILNINGVDIELHLHMEIVLFKIDGRWVVHEIRFL”: the protease stability score is 1.72.

The sequence “DHWEELIERALDFHRSLLRTGDPEVLERQADPNAKFVVGDKTLHGRESVSDWMNRVKNIQIHMRDLHVIDGKIEMHVQMHYDGRTSHTRLIADKVDGRWIYRSVSVE” returned a protease stability score of 0.69.

“DEEKKKFEHWVKLVIHALLTGDEKHLNDMADPNVKVRSVFNGRHVELHGRENEHRWLEKLRKRLGVDHIEITDSVIQGDKVEIDSRYIQGDKEFKSSIHIVVVNGRTHENEFIFH” had a protease stability score of 1.1.

“DELEELIRKLAELFFEILRTGDEDKLRKLLDPHAKFTFIINGVIIDSIGRDFILKLHEDLWRRIKNVRMEYERVEVQGDKAYFRTRMNFNGKETETNLHLIIVDGKLKQESWEIE” displayed a protease stability score of 0.738.

For the sequence “DEEEEDIDFLIHLLVKTIKTGDEHIFRRLMDPHVRMHAEGRELHGREVVVERWAKIMRELRITHIEVTHKDVVDGQVELHMRIKFRVGDKEKETRVELHAEKIDGRWVIRSIHIL”, the protease stability score is 1.75.

Regarding “REEEERLKDLERVMRELWRTGDEREMSRNADPHVKLSVGDKEFHGRELFTKWASRVDHYDHLIIRDIETQGDKVRMYVETEMDIDGKDVKTESFILAVKIDGRWILRSLELR”, the protease stability score amounted to 0.387.

Regarding “SEDEHSWRLAREEFRKTNETGNEEDLSRLFDPHVRIDINGREIHGRDEASELFHKLGIDHIRWRVKRVKIFDGRMENRGELILIFNGREHRYDITVISSKIDGQWSVESMHYK”, the protease stability score is 0.534.

With “EEEEEFLRIMIELFLRTVKTGDEDAFNKLADPNVKSNINGVTLHGMERHHEWLRIELEKAGVERVDTRLDDKNIIDGRVIVHGTMFYNGRTITVHNIWHKINGRWVLETIEIR”, the protease stability score came out at 1.6.

The sequence “SELDDHMRRIMDHYIEDLVTGNEDRQQKLADPNVRVIIWQGDKIYHLHGREEWVKALRELRWHEIHVRHREPVNGKTHVDTEVDGEINGRRHRHRVHLTLLVVDGKVKLVEFDHH” returned a protease stability score of 1.37.

“DEDDENVEQFIELFNEVMNTGDWRSLKRMIDPNARSRIGEKHLIGREMLEDFRHQADHVKIRDMKIERSHVINGRVLVDGIVHGEENFNGRRFLVNREVHLVVVKVNGRWFLRSIEFG”: the protease stability score was found to be 0.809.

Sequence “DERHEHTHELMRLLIEAFVTGDERLSEELADPHTRLHVNGVHNWGRERFVEVVRRLWSQVKNAKWTLRDFHVQGDKNEVVGDVHVDGQTIHVRFIFFVFNGRLESEEIRVH” returned a protease stability score of 2.4.

“DESHELWRRNLELILQSRHTGDEFLTKELFDPRMRSNVNGVELHGMEEMLKFVSEIRIHVEHFRLHRIETQGDKIHIRAHEVINIEIGDYHVRLDTWVEMHDVKYNGRWFNTEVHIR” returned a protease stability score of 0.979.

As for “HEEEEEARRFSTLFNRAMLTGDEDELKEYADPHVRIDINGVILHGRERLREWLEKYLKEIRWHDFKIEHVDVQGDKVDIKVNVDGHINGRRTTRETEIRVEKIDGRWVIREIRFR”, the protease stability score amounted to 0.673.

Turning to “DEEDEERTWAWEIFVKIIRTGDEQKLHEMADPHVRLHVGDKHEHGREELVKFFIDYILSLGVDHIEVHLKREDRINGRIHIDSKLRIEVGDKEITNNTHVLFLKVDGKWILKQVEIK”, the protease stability score is -0.11.

“DETEEDVREAIRKMLHSTRTGDEEDNKKLMDPNVQIDIDGVKYHGWETWVEHMRRVDHLRMKIHSIEVQGNKLIVDGELDQRFNGVQLRFRSELILVKIDGRWLVHSIHFK” showed a protease stability score of 1.17.

As to “SDEEHSLKRMWKELAHAMMTGDEHTVTELLDPHVRFEYGEFDLHGREDWLEFLREIRILIHHFEVRHINNFENHINTDGFTDIIIIIGDKDIRRRRKTQYFQVKVNGQWLFRSIHVR”, the protease stability score came to 1.41.

The sequence “SEEEHDVERSIKHFLHILETGDWKELYEQMDPNVRIEIDGKFIIGREASVHHFNRYDHHRSRIEIKHVDVYGDKLNVHGHIHEHFSVNGKDITRSMRVILHARKVDGQWIHTEVRYK” gave a protease stability score of 1.32.

The sequence “DEEDEQAKELSRIMMEVLRTGDEDMFTKLLDPNVRLEIGEKEDHGRERAMHWLIRFLYRIPNARFIWRDVDVHRINGRVLDTSDLQVRINGRDFKTFVITHIVKIDGRWRVTKLEVHIE” had a protease stability score of 1.56.

In turn, “SEEEKILEDALRLLIEVDETGNWKLLQEMIDPNVLVDINGRKYHGREQWIRLLHEFIRDAGVQRIHSDIEHIEIQGEKIIMHGMLDINGQRRRTEVIAHKYDGRWFVEEIRIR” displayed a protease stability score of 2.11.

For the sequence “DEDKHLARHLVDLIWESLKTGNEKLSKSLADPNVRIIVGDKEVVGRERVEKWLEKVMHEIRVKDLDERHVDVQGDKVNVYVDIHGNFDGKDDTTHFYFDIKKVNGVWLIERYEVH”, the protease stability score is 0.958.

As for “NEIEEIVERLWRLYIQNRLTGDEDQMSRLADPHTRVHIHIGDKHIDIHGMENTARLTTKLRREIRMEIEIHHVTVQGNKLHAEVRLILHIGDKILESDTRIINIFVDGKLRTVHIHIE”, the protease stability score is 1.32.

In the case of “SEMEHNLLEFIEHLLRNWRTGDEDREHELADPHYRIDVNGVELHGMEYLLEMFRRLGIDHMEFELKRSTVVGDFAIVDGNLQFHVDGKWERRKVKMVNKKVDGRWHHTQFSVN”, the protease stability score is 1.5.

The values above are taken from the NTF2 design screens of Basanta et al. (2020).
